# Assay results: US20260224676A1 (published 2026)
# B1: Bepranemab (antibody, V domains shown)
# VH: EVQLQESGPGLVKPSETLSLTCTVSGFSLTSNDIAWIRQPPGKGLEWMGTIWTDGSTNYNTAVQSRVTISVDTSKNQFSLKLSSVTAADTAVYYCARHRLYYGAFDYWGQGTMVTVSS
# VL: DIVMTQTPLSLSVTPGQPASISCRSSQSLEYSDGYTYLEWYLQKPGQSPQLLIYEVSNRFSGVPDRFSGSGSGTDFTLKISRVEAEDVGVYYCFQATHNPYTFGQGTKLEIK
# Molecular target: Tau preformed fibrils (PFF) (UniProt P10636 2-758)
# Experiment: BLI
binder,measurement,value
B1,Kd,1.32 nM
